US20260209355A1 (BIOND BIOLOGICS, published 2026)

T1: L145K mutated biotinylated and Myc tagged human CD28 stalk region dimeric peptide (human, C-terminal biotin; Cysteine at position 141 (CD28 numbering) forms the disulfide linkage of the dimer)
T1 construct: also called L145K CD28 stalk region dimeric peptide; mutant peptide
T1 peptide: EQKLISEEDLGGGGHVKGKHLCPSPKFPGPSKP

T2: c-Myc conjugated and biotinylated human CD28 stalk region dimeric peptide (wild-type) (human, C-terminal biotin; Cysteine at position 141 (CD28 numbering) forms the disulfide linkage of the dimer)
T2 construct: the Methods describe only this biotinylated dimeric peptide design, so it is used here; also called Biotin conjugated CD28 stalk region dimeric peptide; WT peptide
T2 peptide: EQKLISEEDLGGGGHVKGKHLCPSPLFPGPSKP


Tests used:
[1] = molecular target: T1, L145K mutated biotinylated and Myc …; experiment: direct ELISA, peptide on neutravidin plate, anti His tag-HRP
Description: (§1) Biotin conjugated wild-type or L145K CD28 stalk region dimeric peptides were immobilized on neutravidin coated ELISA maxi-sorb plates. A dilution series of VHH clones (0.2-5 μg/mL) and an irrelevant VHH clone (top left chart) was performed and detection of bound VHH was done with anti His tag-HRP conjugated antibody and development was done with TMB.

[2] = molecular target: T2, c-Myc conjugated and biotinylated human …; experiment: direct ELISA, WT stalk dimeric peptide on neutravidin plate, VHH 0.2-5 µg/mL
Description: as §1

membranal human CD28 = molecular target: T3, membranal human CD28 (human, UniProt P10747 19-220); experiment: FACS, FITC conjugated VHH on HEK cells overexpressing CD28
T3 construct: also called mCD28; HEK cells overexpressing human CD28

[3] = molecular target: T2, c-Myc conjugated and biotinylated human …; experiment: phage library screen by ELISA and flow cytometry against recombinant CD28 extracellular domain and the dimeric stalk region peptide

Row | Binder | binding result [1] | binding result [2] | binding result (membranal human CD28) | binding result [3]
1 | VHH clone 4A1 (VHH, Produced recombinantly in CHO cells) VHH: QVQLVESGGGLVQAGGSLRLSCAASGSIFSINAMGWYRQAPGKQRERVAAITSGGSTNYADSVKGRFTISRDNAKNTVYLQMNNLEPRDAGVYYCVVDLYGEDYWIWGQGTQVTVSS | no binding (tested: 0.2-5 µg/mL) | binds | – | –
2 | VHH clone 2A1 (VHH, FITC conjugated in the FACS assay of FIG. 6, Produced recombinantly in CHO cells; from a naive llama VHH phage library; The printed text reads 'EVOLVESGGG' (probably Q); also called VHH #2A1) VHH: EVQLVESGGGLVQAGESLRLSCAASGSIASINAMGWYRQAPGSQRELVAAISGGGDTYYADSVKGRFTISRDNAKTTVYLQMNSLRPEDTAVYYCVVDLYGSDYWDWGQGTQVTVSS | no binding (tested: 0.2-5 µg/mL) | – | binds | binds
3 | VHH clone 4A4 (VHH, Produced recombinantly in CHO cells) VHH: EVQLVESGGGLVQAGGSLRLSCAASGSLFSINAMAWYRQAPGKQRELVAAITSSGSTNYANSVKGRFTVSRDNAKNTMYLQMNSLKPEDTAVYYCVVDEYGSDYWIWGQGTQVTVSS | no binding (tested: 0.2-5 µg/mL) | binds | – | –
